Measurements taken from patent US20250076311A1 (Chugai, published 2025).

Columns and labels:
[1] = biological target: T1, soluble mouse FcγRII, His-tagged (mouse, UniProt P08101 30-210, limits assumed); assay: SPR, mouse FcγRII captured via His-tag, antigen-antibody complex injected, pH 7.4, 25 C
T1 construct: Captured on the chip through an anti-His antibody
T1 sequence (looked up): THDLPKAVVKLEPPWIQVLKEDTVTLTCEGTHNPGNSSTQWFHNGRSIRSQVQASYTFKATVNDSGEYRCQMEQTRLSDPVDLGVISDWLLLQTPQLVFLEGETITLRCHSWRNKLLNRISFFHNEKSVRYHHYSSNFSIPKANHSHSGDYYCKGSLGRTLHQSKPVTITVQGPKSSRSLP
In short: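 Biacore T200; His-tagged soluble FcγRII captured on an anti-His antibody chip, then antibody–antigen complexes injected. Running buffer 20 mM ACES, 150 mM NaCl, 1.2 mM CaCl₂, 0.05% Tween 20, pH 7.4; regeneration with 10 mM glycine-HCl pH 1.5; all at 25° C.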

[2] = biological target: T2, human FcγRIIb constitutively expressed on MDCK cells (human, UniProt P31994 43-310); assay: cell-based or functional assay
T2 sequence (looked up): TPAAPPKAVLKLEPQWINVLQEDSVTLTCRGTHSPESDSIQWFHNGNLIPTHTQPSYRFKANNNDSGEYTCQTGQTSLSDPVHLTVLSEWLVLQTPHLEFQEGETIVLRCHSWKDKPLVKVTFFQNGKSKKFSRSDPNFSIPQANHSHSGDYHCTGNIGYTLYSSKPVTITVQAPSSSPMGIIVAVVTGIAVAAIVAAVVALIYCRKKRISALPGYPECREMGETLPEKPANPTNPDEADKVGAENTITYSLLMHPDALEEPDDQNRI

[3] = biological target: T3, cynomolgus monkey FcγRIIIaS extracellular domain with C-terminal His-tag (cynomolgus monkey, UniProt A3RFZ7 21-206 (rhesus entry)); assay: SPR (BIACORE), antibody captured, FcgR analyte
T3 construct: also called cyno FcgRIIIaS; cynoFcγRIIIaS; not shown: His-tag added to the C-terminus
Procedure: (§1) The kinetic analysis of interactions between these antibodies and FcγR was carried out using BIACORE® T200 or BIACORE® 4000 (GE Healthcare). HBS-EP+ (GE Healthcare) was used as the running buffer, and the measurement temperature was set to 25° C. […] After the measurement, the antibody captured on the chip was washed off by allowing reaction with 10 mM glycine-HCl, pH1.5 and 25 mM NaOH so that the chip was regenerated and used repeatedly. The sensorgrams obtained as measurement results were analyzed by the 1:1 Langmuir binding model using the BIACORE® Evaluation Software to calculate the binding rate constant ka (L/mol/s) and dissociation rate constant kd (1/s), and the dissociation constant KD (mol/L) was calculated from these values. […] Regarding such interactions, KD values were calculated using the following 1:1 binding model described in BIACORE® T100 Software Handbook BR1006-48 Edition AE.
Target sequence in this assay (A3RFZ7 21-206): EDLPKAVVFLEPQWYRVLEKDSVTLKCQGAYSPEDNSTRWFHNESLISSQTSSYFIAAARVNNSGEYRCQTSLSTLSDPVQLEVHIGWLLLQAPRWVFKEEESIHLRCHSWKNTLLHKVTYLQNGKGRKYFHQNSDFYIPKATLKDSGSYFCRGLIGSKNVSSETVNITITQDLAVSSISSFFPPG

[4] = biological target: T4, cynomolgus monkey FcγRIIIaS extracellular domain with C-terminal His-tag (cynomolgus monkey, UniProt A3RFZ7 21-206 (rhesus entry)); assay: SPR Biacore, antibody captured, FcgR analyte
T4 construct: also called cyno FcgRIIIaS; cynoFcγRIIIaS; not shown: His-tag added to C-terminus
Procedure: as §1
Target sequence in this assay (A3RFZ7 21-206): as above

B1: MS1032LO06-P1383m (antibody, human IgG1, kappa, name in EU numbering)
heavy: QVTLKESGPVLVKPTETLTLTCTVSGIDLSHDDISWVRQAPGKGLEWVGIISYAGSTYYASWAKGRLTISKDTSKNQVVLTMTNMDPVDTATYYCARGVPAYSHGGDLWGQGTLVTVSSASTKGPSVFPLAPSSKSTSGGTAALGCLVKDYFPEPVTVSWNSGALTSGVHTFPAVLQSSGLYSLSSVVTVPSSSLGTQTYICNVNHKPSNTKVDKKVEPKSCDKTHTCPPCPAPELLGGPSVFLFPPKPKDTLMISRTPEVTCVVVDVSHEDPEVKFNWYVDGVEVHNAKTKPREEQYNSTYRVVSVLTVLHRDWLNGKEYKCKVSNKALPAPIEKTISKAKGQPREPQVYTLPPSREEMTKNQVSLTCLVKGFYPSDIAVEWESNGQPENNYKTTPPVLDRDGSFFLYSKLTVKKSRWQQGNVFSCSVMHEALHNHYTQKSLSLSP
light: DIVMTQSPATLSLSPGERATLSCTSSQSVYHANWLSWFQQKPGQPPKLLIYWASTLAYGVPSRFSGSGSGTDFTLTISSLQPEDAATYYCAGGYGGGRYAFGQGTKVEIKRTVAAPSVFIFPPSDEQLKSGTASVVCLLNNFYPREAKVQWKVDNALQSGNSQESVTEQDSKDSTYSLSSTLTLSKADYEKHKVYACEVTHQGLSSPVTKSFNRGEC
notes: also called M103205H795-P1383m; copies: 2 + 2
biacore IC binding (relative, SG1 = 1.00) [1]: 1.41 relative to SG1 | celluar uptake (labelled human latent myostatin taken up as antigen-antibody complex) [2]: 5.68 relative to SG1 = 1.00

B2: MS_M103205H795-SG1/M103202L889-SK1 (antibody, human IgG1, kappa)
heavy: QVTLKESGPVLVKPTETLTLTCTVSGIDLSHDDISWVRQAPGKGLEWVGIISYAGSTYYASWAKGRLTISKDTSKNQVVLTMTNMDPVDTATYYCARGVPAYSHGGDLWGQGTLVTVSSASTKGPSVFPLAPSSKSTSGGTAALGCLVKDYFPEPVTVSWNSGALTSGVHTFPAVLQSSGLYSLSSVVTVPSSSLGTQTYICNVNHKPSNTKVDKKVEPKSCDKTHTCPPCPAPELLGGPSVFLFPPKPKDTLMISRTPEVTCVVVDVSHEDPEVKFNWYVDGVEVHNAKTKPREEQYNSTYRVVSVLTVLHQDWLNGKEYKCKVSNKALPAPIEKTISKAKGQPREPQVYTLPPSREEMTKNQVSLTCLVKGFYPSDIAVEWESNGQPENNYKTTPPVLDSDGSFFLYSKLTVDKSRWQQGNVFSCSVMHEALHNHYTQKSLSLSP
light: DIVMTQSPATLSLSPGERATLSCTSSQSVYHANWLSWFQQKPGQPPKLLIYWASTLAYGVPSRFSGSGSGTDFTLTISSLQPEDAATYYCAGGYGGGRYAFGQGTKVEIKRTVAAPSVFIFPPSDEQLKSGTASVVCLLNNFYPREAKVQWKVDNALQSGNSQESVTEQDSKDSTYSLSSTLTLSKADYEKHKVYACEVTHQGLSSPVTKSFNRGEC
notes: parent antibody of the Fc variants; human heavy chain constant region SG1; also called MS1032LO06-SG1
Kd [3]: 560 nM

B3: M103205H795-MY174/M103202L889-SK1 (antibody, human IgG1, kappa, name in EU numbering)
heavy: QVTLKESGPVLVKPTETLTLTCTVSGIDLSHDDISWVRQAPGKGLEWVGIISYAGSTYYASWAKGRLTISKDTSKNQVVLTMTNMDPVDTATYYCARGVPAYSHGGDLWGQGTLVTVSSASTKGPSVFPLAPSSKSTSGGTAALGCLVKDYFPEPVTVSWNSGALTSGVHTFPAVLQSSGLYSLSSVVTVPSSSLGTQTYICNVNHKPSNTKVDKKVEPKSCDKTHTCPPCPAPELLNGPSVFLFPPKPKDTLMISRTPEVTCVVVDVSEEDPEVKFNWYVDGVEVHNAKTKPREEQYNSTYRVVSVLTVLHQDWLNGKEYKCKVSNKALPAPIEKTISKAKGQPREPQVYTLPPSREEMTKNQVSLTCLVKGFYPSDIAVEWESNGQPENNYKTTPIVLDSDGSFFLYSKLTVDKSRWQQGNVFSCSVMHEALHNHYTQKSLSLSP
light: DIVMTQSPATLSLSPGERATLSCTSSQSVYHANWLSWFQQKPGQPPKLLIYWASTLAYGVPSRFSGSGSGTDFTLTISSLQPEDAATYYCAGGYGGGRYAFGQGTKVEIKRTVAAPSVFIFPPSDEQLKSGTASVVCLLNNFYPREAKVQWKVDNALQSGNSQESVTEQDSKDSTYSLSSTLTLSKADYEKHKVYACEVTHQGLSSPVTKSFNRGEC
notes: EU numbering
KD fold (SG1 = 1) [4]: 0.14 fold | Kd [4]: 2500 nM

B4: M103205H795-MY199/M103202L889-SK1 (antibody, human IgG1, kappa, name in EU numbering)
heavy: QVTLKESGPVLVKPTETLTLTCTVSGIDLSHDDISWVRQAPGKGLEWVGIISYAGSTYYASWAKGRLTISKDTSKNQVVLTMTNMDPVDTATYYCARGVPAYSHGGDLWGQGTLVTVSSASTKGPSVFPLAPSSKSTSGGTAALGCLVKDYFPEPVTVSWNSGALTSGVHTFPAVLQSSGLYSLSSVVTVPSSSLGTQTYICNVNHKPSNTKVDKKVEPKSCDKTHTCPPCPAPELLNGPSVFLFPPKPKDTLMISRTPEVTCVVVDVSEEDPEVKFNWYVDGVEVHNAKTKPREEQYNSTYRVVSVLTVLHQDWLNGKEYKCKVSNKALPKPIEKTISKAKGQPREPQVYTLPPSREEMTKNQVSLTCLVKGFYPSDIAVEWESNGQPENNYKTTPPVLDSDGSFFLYSKLTVDKSRWQQGNVFSCSVMHEALHNHYTQKSLSLSP
light: DIVMTQSPATLSLSPGERATLSCTSSQSVYHANWLSWFQQKPGQPPKLLIYWASTLAYGVPSRFSGSGSGTDFTLTISSLQPEDAATYYCAGGYGGGRYAFGQGTKVEIKRTVAAPSVFIFPPSDEQLKSGTASVVCLLNNFYPREAKVQWKVDNALQSGNSQESVTEQDSKDSTYSLSSTLTLSKADYEKHKVYACEVTHQGLSSPVTKSFNRGEC
notes: substitutions in EU numbering, introduced into M103205H795-SG1
KD fold (SG1 = 1) [4]: 0.09 fold

B5: M103205H795-MY206/M103202L889-SK1 (antibody, human IgG1, kappa, name in EU numbering)
heavy: QVTLKESGPVLVKPTETLTLTCTVSGIDLSHDDISWVRQAPGKGLEWVGIISYAGSTYYASWAKGRLTISKDTSKNQVVLTMTNMDPVDTATYYCARGVPAYSHGGDLWGQGTLVTVSSASTKGPSVFPLAPSSKSTSGGTAALGCLVKDYFPEPVTVSWNSGALTSGVHTFPAVLQSSGLYSLSSVVTVPSSSLGTQTYICNVNHKPSNTKVDKKVEPKSCDKTHTCPPCPAPELLNGPVVFLFPPKPKDTLMISRTPEVTCVVVDVSDEDPEVKFNWYVDGVEVHNAKTKPREELYNSTYRVVSVLTVLHQDWLNGKEYKCKVSNKALPKPIEKTISKAKGQPREPQVYTLPPSREEMTKNQVSLTCLVKGFYPSDIAVEWESNGQPENNYKTTPPVLDSDGSFFLYSKLTVDKSRWQQGNVFSCSVMHEALHNHYTQKSLSLSP
light: DIVMTQSPATLSLSPGERATLSCTSSQSVYHANWLSWFQQKPGQPPKLLIYWASTLAYGVPSRFSGSGSGTDFTLTISSLQPEDAATYYCAGGYGGGRYAFGQGTKVEIKRTVAAPSVFIFPPSDEQLKSGTASVVCLLNNFYPREAKVQWKVDNALQSGNSQESVTEQDSKDSTYSLSSTLTLSKADYEKHKVYACEVTHQGLSSPVTKSFNRGEC
notes: as for B4
KD fold (SG1 = 1) [4]: 0.11 fold

B6: MS1032LO06-P1499m (antibody, human IgG1, kappa, name in EU numbering)
heavy: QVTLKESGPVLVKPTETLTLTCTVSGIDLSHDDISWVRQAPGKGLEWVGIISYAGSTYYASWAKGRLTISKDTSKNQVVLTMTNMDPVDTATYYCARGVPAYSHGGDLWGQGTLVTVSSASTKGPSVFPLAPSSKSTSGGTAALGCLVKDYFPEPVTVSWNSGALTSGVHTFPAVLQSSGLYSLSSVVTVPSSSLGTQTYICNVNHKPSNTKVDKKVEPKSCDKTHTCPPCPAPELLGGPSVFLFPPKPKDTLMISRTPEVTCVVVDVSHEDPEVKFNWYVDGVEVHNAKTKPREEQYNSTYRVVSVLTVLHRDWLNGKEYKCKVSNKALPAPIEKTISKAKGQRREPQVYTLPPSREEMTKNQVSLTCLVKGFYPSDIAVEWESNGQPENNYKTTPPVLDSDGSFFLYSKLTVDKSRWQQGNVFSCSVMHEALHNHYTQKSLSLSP
light: DIVMTQSPATLSLSPGERATLSCTSSQSVYHANWLSWFQQKPGQPPKLLIYWASTLAYGVPSRFSGSGSGTDFTLTISSLQPEDAATYYCAGGYGGGRYAFGQGTKVEIKRTVAAPSVFIFPPSDEQLKSGTASVVCLLNNFYPREAKVQWKVDNALQSGNSQESVTEQDSKDSTYSLSSTLTLSKADYEKHKVYACEVTHQGLSSPVTKSFNRGEC
notes: also called M103205H795-P1499m
biacore IC binding (relative, SG1 = 1.00) [1]: 1.98 relative to SG1 | celluar uptake (labelled human latent myostatin taken up as antigen-antibody complex) [2]: 3.61 relative to SG1 = 1.00

B7: M103205H795-MY350/M103202L889-SK1 (antibody, human IgG1, kappa, name in EU numbering)
heavy: QVTLKESGPVLVKPTETLTLTCTVSGIDLSHDDISWVRQAPGKGLEWVGIISYAGSTYYASWAKGRLTISKDTSKNQVVLTMTNMDPVDTATYYCARGVPAYSHGGDLWGQGTLVTVSSASTKGPSVFPLAPSSKSTSGGTAALGCLVKDYFPEPVTVSWNSGALTSGVHTFPAVLQSSGLYSLSSVVTVPSSSLGTQTYICNVNHKPSNTKVDKKVEPKSCDKTHTCPPCPAPELWNGPSVFLFPPKPKDTLMISRTPEVTCVVVDVSEEDPEVKFNWYVDGVEVHNAKTKPREEQYNSTYRVVSVLTVLHQDWLNGKEYKCKVSNKALPKPIEKTISKAKGQPREPQVYTLPPSREEMTKNQVSLTCLVKGFYPSDIAVEWESNGQPENNYKTTPMVLDSDGSFFLYSKLTVDKSRWQQGNVFSCSVMHEALHNHYTQKSLSLSP
light: DIVMTQSPATLSLSPGERATLSCTSSQSVYHANWLSWFQQKPGQPPKLLIYWASTLAYGVPSRFSGSGSGTDFTLTISSLQPEDAATYYCAGGYGGGRYAFGQGTKVEIKRTVAAPSVFIFPPSDEQLKSGTASVVCLLNNFYPREAKVQWKVDNALQSGNSQESVTEQDSKDSTYSLSSTLTLSKADYEKHKVYACEVTHQGLSSPVTKSFNRGEC
notes: Fc variant of MS1032LO06-SG1; positions in EU numbering
Kd [3]: 6600 nM

B8: M103205H795-MY518/M103202L889-SK1 (antibody)
heavy: QVTLKESGPVLVKPTETLTLTCTVSGIDLSHDDISWVRQAPGKGLEWVGIISYAGSTYYASWAKGRLTISKDTSKNQVVLTMTNMDPVDTATYYCARGVPAYSHGGDLWGQGTLVTVSSASTKGPSVFPLAPSSKSTSGGTAALGCLVKDYFPEPVTVSWNSGALTSGVHTFPAVLQSSGLYSLSSVVTVPSSSLGTQTYICNVNHKPSNTKVDKKVEPKSCDKTHTCPPCPAPELWNGPSVFLFPPKPKDTLMISRTPEVTCVVVDVSDEDPEVKFNWYVDGVEVHNAKTKPREELYNSTYRVVSVLTVLHQDWLNGKEYKCKVSNTALPKPIEKTISKAKGQPREPQVYTLPPSREEMTKNQVSLTCLVKGFYPSDIAVEWESNGQPENNYKTTPPVLDSDGSFFLYSKLTVDKSRWQQGNVFSCSVMHEALHNHYTQKSLSLSP
light: DIVMTQSPATLSLSPGERATLSCTSSQSVYHANWLSWFQQKPGQPPKLLIYWASTLAYGVPSRFSGSGSGTDFTLTISSLQPEDAATYYCAGGYGGGRYAFGQGTKVEIKRTVAAPSVFIFPPSDEQLKSGTASVVCLLNNFYPREAKVQWKVDNALQSGNSQESVTEQDSKDSTYSLSSTLTLSKADYEKHKVYACEVTHQGLSSPVTKSFNRGEC
KD fold (SG1 = 1) [4]: 0.09 fold
